Assays:
Experiment in all cases: cell-based or functional assay
[1] = target: HIV-1 Env of isolate 92BR020 (pseudovirus) (HIV-1)
[2] = target: HIV-1 Env of isolate JR-CSF (pseudovirus) (HIV-1) (UniProt P20871)
[3] = target: HIV-1 Env of isolate MGRM-C-026 (pseudovirus) (HIV-1)
[4] = target: HIV-1 Env of isolate 94UG103 (pseudovirus) (HIV-1)
[5] = target: HIV-1 Env of isolate 93IN905 (pseudovirus) (HIV-1)
[6] = target: HIV-1 Env of isolate 92WR021 (pseudovirus) (HIV-1)
[7] = target: HIV-1 Env of isolate 92WR009 (pseudovirus) (HIV-1)
[8] = target: HIV-1 Env of isolate MGRM-A-012 (pseudovirus) (HIV-1)
[9] = target: HIV-1 Env of isolate 92WR024 (pseudovirus) (HIV-1)
[10] = target: HIV-1 Env of isolate MGRM-A-007 (pseudovirus) (HIV-1)
[11] = target: HIV-1 Env of isolate 92WR020 (pseudovirus) (HIV-1)
[12] = target: HIV-1 Env of isolate MGRM-AE-003 (pseudovirus) (HIV-1)
[13] = target: HIV-1 Env of isolate VLGCA1 (pseudovirus) (HIV-1)
[14] = target: HIV-1 Env of isolate 93WR029 (pseudovirus) (HIV-1)
[15] = target: HIV-1 Env of isolate MGRM-A-003 (pseudovirus) (HIV-1)
[16] = target: HIV-1 Env of isolate MGRM-A-004 (pseudovirus) (HIV-1)
[17] = target: HIV-1 Env of isolate MGRM-A-014 (pseudovirus) (HIV-1)
[18] = target: HIV-1 Env of isolate 93UG077 (pseudovirus) (HIV-1)
[19] = target: HIV-1 Env of isolate MGRM-A-013 (pseudovirus) (HIV-1)
[20] = target: HIV-1 Env of isolate 92UG031 (pseudovirus) (HIV-1)
[21] = target: HIV-1 Env of isolate MGRM-AE-001 (pseudovirus) (HIV-1)
[22] = target: HIV-1 Env of isolate 92RW008 (pseudovirus) (HIV-1)
[23] = target: HIV-1 Env of isolate 94KE105 (pseudovirus) (HIV-1)
[24] = target: HIV-1 Env of isolate MGRM-AE-002 (pseudovirus) (HIV-1)
[25] = target: HIV-1 Env of isolate MGRM-A-010 (pseudovirus) (HIV-1)
[26] = target: HIV-1 Env of isolate 92TH021 (pseudovirus) (HIV-1)
[27] = target: HIV-1 Env of isolate 92WR026 (pseudovirus) (HIV-1)
[28] = target: HIV-1 Env of isolate MGRM-A-002 (pseudovirus) (HIV-1)
[29] = target: HIV-1 Env of isolate MGRM-A-008 (pseudovirus) (HIV-1)
[30] = target: HIV-1 Env of isolate MGRM-A-006 (pseudovirus) (HIV-1)
[31] = target: HIV-1 Env of isolate 92UG037 (pseudovirus) (HIV-1)
[32] = target: HIV-1 Env of isolate MGRM-A-009 (pseudovirus) (HIV-1)
[33] = target: HIV-1 Env of isolate MGRM-A-005 (pseudovirus) (HIV-1)
[34] = target: HIV-1 Env of isolate MGRM-A-001 (pseudovirus) (HIV-1)
[35] = target: HIV-1 Env of isolate MGRM-A-011 (pseudovirus) (HIV-1)
[36] = target: HIV-1 Env of isolate CMU02 (pseudovirus) (HIV-1)

| Binder | Primary Neutralization Index (B cell culture supernatant) [2] | Primary Neutralization Index (B cell culture supernatant) [3] | IC50 (µg/mL), pseudovirus neutralization [6] | IC50 (µg/mL), pseudovirus neutralization [7] | IC50 (µg/mL), pseudovirus neutralization [8] | IC50 (µg/mL), pseudovirus neutralization [9] | IC50 (µg/mL), pseudovirus neutralization [10] | IC50 (µg/mL), pseudovirus neutralization [11] | IC50 (µg/mL), pseudovirus neutralization [12] | IC50 (µg/mL), pseudovirus neutralization [13] | IC50 (µg/mL), pseudovirus neutralization [14] | IC50 (µg/mL), pseudovirus neutralization [15] | IC50 (µg/mL), pseudovirus neutralization [16] | IC50 (µg/mL), pseudovirus neutralization [17] | IC50 (µg/mL), pseudovirus neutralization [18] | IC50 (µg/mL), pseudovirus neutralization [19] | IC50 (µg/mL), pseudovirus neutralization [20] | IC50 (µg/mL), pseudovirus neutralization [21] | IC50 (µg/mL), pseudovirus neutralization [4] | IC50 (µg/mL), pseudovirus neutralization [22] | further results |
| --- | --- | --- | --- | --- | --- | --- | --- | --- | --- | --- | --- | --- | --- | --- | --- | --- | --- | --- | --- | --- | --- |
| 4869_K15 (PGT-133) (antibody, V domains shown) VH: QVHLQESGPGLVTPSETLSLTCTVSNGSVSGRFWSWIRQSPGRGLEWIGYFSDTDRSEYNPSLRSRLTLSVDRSKNQLSLRLKSVTAADSATYYCARAQQGKRIYGIVSFGEFFYYYYMDAWGKGTPVTVSS VL: SLNPLSLAPGATAKIPCGERSRGSRAVQWYQQKPGQAPTLIIYNNQDRPAGVSERFSGNPDVAIGVTATLTISRVEVGDEADYYCHYWDSRSPISWIFGGGTQLTVL | 2.1 | 104 |  |  |  |  |  |  |  |  |  |  |  |  |  |  |  |  |  |  | Primary Neutralization Index (B cell culture supernatant) [1]: 3.9; Primary Neutralization Index (B cell culture supernatant) [4]: 1.5 |
| 5366_P21 (PGT-136) (antibody, V domains shown) VH: QLQLQESGPGLVKPSETLSLTCTVSGGSMRGTDWGENDFHYGWIRQSSAKGLEWIGSIHWRGRTTHYKTSFRSRATLSIDTSNNRFSLTFSFVTAADTAVYYCARHKYHDIFRVVPVAGWFDPWGQGLLVTVSS VL: EIVMTQSPPTLSVSPGETATLSCRASQNVKNNLAWYQLKPGQAPRLLIFDASSRAGGIPDRFSGSGYGTDFTLTVNSVQSEDFGDYFCQQYEEWPRTFGQGTKVDIK | 1.1 | 6.2 |  |  |  |  |  |  |  |  |  |  |  |  |  |  |  |  |  |  | Primary Neutralization Index (B cell culture supernatant) [5]: 5.5 |
| 5344_E16 (PGT-135) (antibody, V domains shown) VH: QLQMQESGPGLVKPSETLSLSCTVSGDSIRGGEWGDKDYHWGWVRHSAGKGLEWIGSIHWRGTTHYKESLRRRVSMSIDTSRNWFSLRLASVTAADTAVYFCARHRHHDVFMLVPIAGWFDVWGPGVQVTVSS VL: EIVMTQSPDTLSVSPGETVTLSCRASQNINKNLAWYQYKPGQSPRLVIFETYSKIAAFPARFVASGSGTEFTLTINNMQSEDVAVYYCQQYEEWPRTFGQGTKVDIK | 1.5 | 3.6 |  |  |  |  |  |  |  |  |  |  |  |  |  |  |  |  |  |  | Primary Neutralization Index (B cell culture supernatant) [5]: 2.3 |
| PGT-125 (5123_A06) (antibody, V domains shown) VH: QSQLQESGPRLVEASETLSLTCNVSGESTGACTYFWGWVRQAPGKGLEWIGSLSHCQSFWGSGWTFHNPSLKSRLTISLDTPKNQVFLKLTSLTAADTATYYCARFDGEVLVYNHWPKPAWVDLWGRGIPVTVSS VL: QSALTQPPSASGSPGQSITISCNGTATNFVSWYQQFPDKAPKLIIFGVDKRPPGVPDRFSGSRSGTTASLTVSRLQTDDEAVYYCGSLVGNWDVIFGGGTTLTVL |  |  | 0.005 µg/mL | 0.144 µg/mL | 0.177 µg/mL | 35.5 µg/mL | > 50 µg/mL | 0.004 µg/mL | 0.092 µg/mL | 0.078 µg/mL | > 50 µg/mL | > 50 µg/mL | > 50 µg/mL | 13.9 µg/mL | 0.012 µg/mL | 0.014 µg/mL | > 50 µg/mL | 2.95 µg/mL | 0.008 µg/mL | 0.004 µg/mL | IC50 (µg/mL), pseudovirus neutralization [23]: 0.004 µg/mL; IC50 (µg/mL), pseudovirus neutralization [24]: > 50 µg/mL; IC50 (µg/mL), pseudovirus neutralization [25]: 0.004 µg/mL; IC50 (µg/mL), pseudovirus neutralization [26]: 0.006 µg/mL; IC50 (µg/mL), pseudovirus neutralization [27]: 0.007 µg/mL; IC50 (µg/mL), pseudovirus neutralization [28]: 0.013 µg/mL; IC50 (µg/mL), pseudovirus neutralization [29]: > 50 µg/mL; IC50 (µg/mL), pseudovirus neutralization [30]: > 50 µg/mL; IC50 (µg/mL), pseudovirus neutralization [31]: 0.005 µg/mL; IC50 (µg/mL), pseudovirus neutralization [32]: 0.009 µg/mL; IC50 (µg/mL), pseudovirus neutralization [33]: > 50 µg/mL; IC50 (µg/mL), pseudovirus neutralization [34]: 12.4 µg/mL; IC50 (µg/mL), pseudovirus neutralization [35]: > 50 µg/mL; IC50 (µg/mL), pseudovirus neutralization [36]: > 50 µg/mL |
| PGT-126 (5141_B17) (antibody, V domains shown) VH: QPQLQESGPGLVEASETLSLTCTVSGDSTAACDYFWGWVRQPPGKGLEWIGGLSHCAGYYNTGWTYHNPSLKSRLTISLDTPKNQVFLKLNSVTAADTAIYYCARFDGEVLVYHDWPKPAWVDLWGRGTLVTVSS VL: QSALTQPPSASGSPGQSISISCTGTSNRFVSWYQQHPGKAPKLVIYGVNKRPSGVPDRFSGSKSGNTASLTVSGLQTDDEAVYYCSSLVGNWDVIFGGGTKLTVL |  |  | 0.006 µg/mL | > 50 µg/mL | 0.097 µg/mL | 42 µg/mL | > 50 µg/mL | 0.006 µg/mL | > 50 µg/mL | > 50 µg/mL | > 50 µg/mL | > 50 µg/mL | > 50 µg/mL | 0.01 µg/mL | 0.02 µg/mL | 0.006 µg/mL | > 50 µg/mL | 9.68 µg/mL | 0.008 µg/mL | 0.008 µg/mL | IC50 (µg/mL), pseudovirus neutralization [23]: 0.006 µg/mL; IC50 (µg/mL), pseudovirus neutralization [24]: > 50 µg/mL; IC50 (µg/mL), pseudovirus neutralization [25]: 0.002 µg/mL; IC50 (µg/mL), pseudovirus neutralization [26]: 0.197 µg/mL; IC50 (µg/mL), pseudovirus neutralization [27]: 0.008 µg/mL; IC50 (µg/mL), pseudovirus neutralization [28]: 0.015 µg/mL; IC50 (µg/mL), pseudovirus neutralization [29]: > 50 µg/mL; IC50 (µg/mL), pseudovirus neutralization [30]: > 50 µg/mL; IC50 (µg/mL), pseudovirus neutralization [31]: 0.011 µg/mL; IC50 (µg/mL), pseudovirus neutralization [32]: 0.004 µg/mL; IC50 (µg/mL), pseudovirus neutralization [33]: > 50 µg/mL; IC50 (µg/mL), pseudovirus neutralization [34]: > 50 µg/mL; IC50 (µg/mL), pseudovirus neutralization [35]: > 50 µg/mL; IC50 (µg/mL), pseudovirus neutralization [36]: > 50 µg/mL |
| PGT-127 (5145_B14) (antibody, V domains shown) VH: QPQLQESGPGLVEASETLSLTCTVSGDSTGRCNYFWGWVRQPPGKGLEWIGSLSHCRSYYNTDWTYHNPSLKSRLTISLDTPKNQVFLRLTSVTAADTATYYCARFGGEVLVYRDWPKPAWVDLWGRGTLVVTVS VL: QSALTQPPSASGSPGQSITISCTGTSNNFVSWYQQYPGKAPKLVIYEVNKRPSGVPDRFSGSKSGSTASLTVSGLQADDEGVYYCSSLVGNWDVIFGGGTKLTVL |  |  | 0.011 µg/mL | > 50 µg/mL | 0.105 µg/mL | > 50 µg/mL | > 50 µg/mL | 0.01 µg/mL | > 50 µg/mL | > 50 µg/mL | > 50 µg/mL | > 50 µg/mL | > 50 µg/mL | 0.24 µg/mL | 0.055 µg/mL | 0.029 µg/mL | > 50 µg/mL | > 50 µg/mL | 0.017 µg/mL | 0.012 µg/mL | IC50 (µg/mL), pseudovirus neutralization [23]: 0.023 µg/mL; IC50 (µg/mL), pseudovirus neutralization [24]: > 50 µg/mL; IC50 (µg/mL), pseudovirus neutralization [25]: 0.017 µg/mL; IC50 (µg/mL), pseudovirus neutralization [26]: > 50 µg/mL; IC50 (µg/mL), pseudovirus neutralization [27]: 0.024 µg/mL; IC50 (µg/mL), pseudovirus neutralization [28]: 9.42 µg/mL; IC50 (µg/mL), pseudovirus neutralization [29]: > 50 µg/mL; IC50 (µg/mL), pseudovirus neutralization [30]: > 50 µg/mL; IC50 (µg/mL), pseudovirus neutralization [31]: 0.014 µg/mL; IC50 (µg/mL), pseudovirus neutralization [32]: 0.013 µg/mL; IC50 (µg/mL), pseudovirus neutralization [33]: > 50 µg/mL; IC50 (µg/mL), pseudovirus neutralization [34]: > 50 µg/mL; IC50 (µg/mL), pseudovirus neutralization [35]: > 50 µg/mL; IC50 (µg/mL), pseudovirus neutralization [36]: > 50 µg/mL |

From US20250320281A1
